Data on two compounds can be found in patent US20150299764A1, “IMMOBILISED CYCLIN-DEPENDENT KINASE 4 FUSION PROTEINS AND USES THEREOF” (UNIVERSITE LIBRE DE BRUXELLES, priority 2012, published 2015).

The target of assay [1] is biotinylated Avi-tagged luciferase/EGFP fusion (pWFAvi_IBc_luc) [luciferase: P08659]. Put plainly: pull-down from HEK293T extract on streptavidin-coated sepharose beads; bound luciferase activity relative to bound plus unbound.
Another assay concerns MCF7 cells. The assay is described as follows: BrdU incorporation (DNA synthesis) in quiescent MCF7 cells. The assay is classed as cell-based. The following applies: fulvestrant 10 nM during the last 24 h of the incubation without serum and insulin, results not shown. Here is the method: MCF7 cells (ATCC HTB-22) were routinely cultivated in Dulbecco's Modified Eagle Medium (DMEM) comprising 5% serum, 6 ng/ml insulin, 0.1 mM non essential amino acids (NEAA, GIBCO), 1 mM Sodium pyruvate, 50 U/ml Penicillin and 50 μg/ml Streptomycin. The cells were rendered quiescent by incubating them for three days in phenol-free DMEM without serum and insulin, but supplemented with 0.1 mM NEAA (GIBCO), 1 mM Sodium pyruvate, 50 U/ml Penicillin and 50 μg/ml Streptomycin. Cells were kept quiescent (control) or were stimulated to proliferate by adding 5% serum and 6 ng/ml insulin in the culture medium. Samples were harvested 2 h, 4 h, 6 h, 8 h, 10 h, 12 h, 16 h, and 24 h after stimulation of MCF7 cells. Bromodeoxyuridine (BrdU, 10^−4 M) and fluorodeoxyuridine (2.10^−6 M) were added to the cells for the last 24 h of culture. BrdU staining was used to record DNA synthesis. […] DNA synthesis resumed 16 h after stimulation by serum and insulin (FIG. 5, dashed line).
When fulvestrant (10 nM) was added to the culture to block estrogen receptor action during the last 24 h of the incubation without serum and insulin, the proportion of cells starting DNA synthesis dropped to less than 2% (results not shown).

For “streptavidin (from UniProt P22629 37-163)”, in assay [1], the percent of the total luciferase activity bound is below 40%. Regarding `C[C@]12CC[C@@H]3c4ccc(O)cc4C[C@@H](CCCCCCCCC[S+]([O-])CCCC(F)(F)C(F)(F)F)[C@H]3[C@@H]1CC[C@@H]2O` (some centres unmarked) [fulvestrant], in the assay with MCF7 cells, the “proportion of cells starting DNA synthesis” value is reported as “less than 2%”.
